Assay results reported in patent publication US20080194019.

Tests used:
FLAG-tagged tuberin = FLAG-tagged tuberin (UniProt P49815)
[1] = tested on: MBP-AMPKa (1-312) bacterial fusion protein

FLAG-tagged tuberin, sequence (P49815 whole entry, the tested form may be a part): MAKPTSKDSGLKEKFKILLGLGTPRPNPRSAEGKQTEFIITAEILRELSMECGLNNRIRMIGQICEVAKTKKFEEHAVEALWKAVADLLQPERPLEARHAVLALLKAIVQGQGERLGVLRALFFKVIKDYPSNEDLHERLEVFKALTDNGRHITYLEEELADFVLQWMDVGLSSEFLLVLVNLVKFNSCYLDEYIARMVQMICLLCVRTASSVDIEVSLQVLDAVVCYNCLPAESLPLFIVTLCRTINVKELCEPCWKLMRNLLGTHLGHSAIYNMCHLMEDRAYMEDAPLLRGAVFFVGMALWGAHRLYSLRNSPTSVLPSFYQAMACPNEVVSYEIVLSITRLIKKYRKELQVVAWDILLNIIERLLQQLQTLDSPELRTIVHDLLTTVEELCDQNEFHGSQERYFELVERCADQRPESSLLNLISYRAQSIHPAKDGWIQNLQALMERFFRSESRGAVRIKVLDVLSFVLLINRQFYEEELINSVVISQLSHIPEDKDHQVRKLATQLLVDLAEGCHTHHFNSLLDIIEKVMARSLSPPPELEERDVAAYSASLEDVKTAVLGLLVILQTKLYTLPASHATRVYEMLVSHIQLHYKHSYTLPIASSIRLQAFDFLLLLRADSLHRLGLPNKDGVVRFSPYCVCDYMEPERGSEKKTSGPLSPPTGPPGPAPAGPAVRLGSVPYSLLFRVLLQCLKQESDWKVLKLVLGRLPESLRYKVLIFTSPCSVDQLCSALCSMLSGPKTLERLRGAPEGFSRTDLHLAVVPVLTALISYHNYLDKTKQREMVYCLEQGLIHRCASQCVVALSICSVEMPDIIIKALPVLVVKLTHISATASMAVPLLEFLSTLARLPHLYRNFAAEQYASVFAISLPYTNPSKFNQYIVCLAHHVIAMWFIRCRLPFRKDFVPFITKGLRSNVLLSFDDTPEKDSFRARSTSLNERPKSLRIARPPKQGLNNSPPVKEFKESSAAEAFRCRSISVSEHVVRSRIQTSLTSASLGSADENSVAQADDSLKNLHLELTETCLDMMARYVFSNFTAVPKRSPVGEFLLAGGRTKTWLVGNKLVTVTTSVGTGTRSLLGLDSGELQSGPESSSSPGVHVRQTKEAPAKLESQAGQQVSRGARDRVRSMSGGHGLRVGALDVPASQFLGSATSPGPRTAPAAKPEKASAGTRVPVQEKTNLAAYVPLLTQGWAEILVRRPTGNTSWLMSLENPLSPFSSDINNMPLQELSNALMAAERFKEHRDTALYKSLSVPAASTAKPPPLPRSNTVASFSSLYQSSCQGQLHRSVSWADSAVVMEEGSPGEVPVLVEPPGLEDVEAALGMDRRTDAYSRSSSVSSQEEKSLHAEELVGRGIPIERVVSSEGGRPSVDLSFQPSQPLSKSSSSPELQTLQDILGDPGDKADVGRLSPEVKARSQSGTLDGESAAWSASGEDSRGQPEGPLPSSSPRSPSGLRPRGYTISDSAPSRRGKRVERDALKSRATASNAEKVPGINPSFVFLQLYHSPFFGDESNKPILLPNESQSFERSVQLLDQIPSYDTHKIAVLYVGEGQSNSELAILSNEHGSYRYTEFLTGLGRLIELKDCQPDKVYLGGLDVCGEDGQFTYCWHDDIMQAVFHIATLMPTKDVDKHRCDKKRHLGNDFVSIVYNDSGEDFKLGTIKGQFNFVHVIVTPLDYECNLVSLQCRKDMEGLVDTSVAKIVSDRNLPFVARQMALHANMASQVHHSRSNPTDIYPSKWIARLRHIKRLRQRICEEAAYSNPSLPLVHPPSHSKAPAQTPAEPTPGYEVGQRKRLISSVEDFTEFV

Active recombinant AMPK (Upstate Biotechnology)
in vitro phosphorylation of tuberin; mobility shift on low percentage SDS-PAGE (FLAG-tagged tuberin): when tuberin was stoichiometrically phosphorylated by AMPK, it underwent a mobility shift

MBP-AMPKa (1-312) bacterial fusion protein
phosphorylation of the SAMS peptide by unphosphorylated MBP-AMPK (SAMS peptide): bacterial MBP-AMPK is inactive towards the peptide
in vitro phosphorylation of FLAG-tagged tuberin by recombinant AMPK pre-activated with wild-type LKB1 (FLAG-tagged tuberin): AMPK activated by wild-type LKB1 directly phosphorylated tuberin in vitro

Active recombinant Akt (Upstate Biotechnology)
in vitro phosphorylation of tuberin; mobility shift on low percentage SDS-PAGE (FLAG-tagged tuberin): This mobility shift in tuberin was not observed when tuberin was phosphorylated by active recombinant Akt, even at levels of tuberin phosphorylation comparable to those induced by AMPK

Kinase-inactive LKB1 (K78I) coexpressed with STRAD, Flag immunoprecipitate
AMPK kinase activity towards the SAMS peptide after in vitro kinase reaction with LKB1 [1]: Kinase-inactive LKB1 alone or coexpressed with STRAD was unable to activate AMPK
